Laboratory results from the supplement of paper PMC12338614.
± gives the uncertainty stated by the source.

B1: library; numbered along this chain (parent)
chain: MEVVDPQQLGMFTEGELMSVGMDTFIHRIDSTEVIYQPRRKRAKLIGKYLMGDLLGEGSYGKVKEVLDSETLCRRAVKILKKKKLRRIPNGEANVKKEIQLLRRLRHKNVIQLVDVLYNEEKQKMYMVMEYCVCGMQEMLDSVPEKRFPVCQAHGYFCQLIDGLEYLHSQGIVHKDIKPGNLLLTTGGTLKISDLGVAEALHPFAADDTCRTSQGSPAFQPPEIANGLDTFSGFKVDIWSAGVTLYNITTGLYPFEGDNIYKLFENIGKGSYAIPGDCGPPLSDLLKGMLEYEPAKRFSIRQIRQHSWFRKKHPPAEAPVPIPPSPDTKDRWRSMTVVPYLEDLHGADEDEDLFDIEDDIIYTQDFTVPGQVPEEEASHNGQRRGLPKAVCMNGTEAAQLSTKSRAEGRAPNPARKACSASSKIRRLSACKQQ

Variants of: B1
Experiment: STK11 functional score (HeLa growth suppression), rescaled enrichment; synonymous median = 1, nonsense median = 0 (normalised score)
Details: with HeLa; variant type: missense
Method: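 Deep mutational scan (TileSeq/POPCode codon randomisation) of full-length codon-optimised STK11 cDNA integrated at a Bxb1 landing pad (AAVS1) in HeLa cells. Restoring functional STK11 suppresses HeLa proliferation. Variant frequencies were measured by NGS before and after about two weeks of growth. The error-corrected enrichment log-ratio was rescaled so that synonymous median = 1 and nonsense median = 0, scores above 1 were compressed, and codon-level and three biological replicate scores were combined; error is the bootstrapped standard error. Scale: synonymous median = 1, nonsense median = 0; below 0.5 = damaging.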
MEVVDPQQLGMFTEGELMSVGMDTFIHRIDSTEVIYQPRRKRAKLIGKYLMGDLLGEGSYGKVKEVLDSETGCRRAVKILKKKKLRRIPNGEANVKKEIQLLRRLRHKNVIQLVDVLYNEEKQKMYMVMEYCVCGMQEMLDSVPEKRFPVCQAHGYFCQLIDGLEYLHSQGIVHKDIKPGNLLLTTGGTLKISDLGVAEALHPFAADDTCRTSQGSPAFQPPEIANGLDTFSGFKVDIWSAGVTLYNITTGLYPFEGDNIYKLFENIGKGSYAIPGDCGPPLSDLLKGMLEYEPAKRFSIRQIRQHSWFRKKHPPAEAPVPIPPSPDTKDRWRSMTVVPYLEDLHGADEDEDLFDIEDDIIYTQDFTVPGQVPEEEASHNGQRRGLPKAVCMNGTEAAQLSTKSRAEGRAPNPARKACSASSKIRRLSACKQQ [L72G] was tested, and the STK11 functional score was 1.44 ± 0.23. With MEVVDPQQLGMFTEGELMSVGMDTFIHRIDSTEVIYQPRRKRAKLIGKYLMGDLLGEGSYGKVKEVLDSETLCRRAVKILKKKKLRRIPNGEANVKKEIQLLRRLRHKNVIQLVDVLYNEEKQKMYMVMEYCVCGMQEMLDSVPEKRFPVCQAHGYFCQLIDGLEYLHSQGIVHKDIKPGNLLLTTGGTLKISDLGVAEALHPFAADDTCRTSQGSPAFQPPEIANGLDTFSGFKVDIWSAGVTLYNITTGLYPFEGDNIYKLFENIGKGSYAIPGDCGPPLSDLLKLMLEYEPAKRFSIRQIRQHSWFRKKHPPAEAPVPIPPSPDTKDRWRSMTVVPYLEDLHGADEDEDLFDIEDDIIYTQDFTVPGQVPEEEASHNGQRRGLPKAVCMNGTEAAQLSTKSRAEGRAPNPARKACSASSKIRRLSACKQQ [G288L] the STK11 functional score was 0.221 ± 0.13. MEVVDPQQLGMFTEGELMSVGMDTFIHRIDSTEVIYQPRRKRAKLIGKYLMGDLLGEGSYGKVKEVLDSETLCRRAVKILKKKKLRRIPNGEANVKKEIQLLRRLRHKNVIQLVDVLYNEEKQKMCMVMEYCVCGMQEMLDSVPEKRFPVCQAHGYFCQLIDGLEYLHSQGIVHKDIKPGNLLLTTGGTLKISDLGVAEALHPFAADDTCRTSQGSPAFQPPEIANGLDTFSGFKVDIWSAGVTLYNITTGLYPFEGDNIYKLFENIGKGSYAIPGDCGPPLSDLLKGMLEYEPAKRFSIRQIRQHSWFRKKHPPAEAPVPIPPSPDTKDRWRSMTVVPYLEDLHGADEDEDLFDIEDDIIYTQDFTVPGQVPEEEASHNGQRRGLPKAVCMNGTEAAQLSTKSRAEGRAPNPARKACSASSKIRRLSACKQQ [Y126C] showed an STK11 functional score of 0.357 ± 0.08. In the case of MEVVDPQQLGMFTEGELMSVGMDTFIHRIDSTEVIYQPRRKRAKLIGKYLMGDLLGEGSYGKVKEVLDSETLCRRAVKILKKKKLRRIPNGEANVKKEIQLLRRLRHKNVIQLVDVLYNEEKQKMYMVMEYCVCGMQEMLDSVPEKRFPVCQAHGYFCQLIDGLEYLHSQGIVHKDIKPGNLLLTTGGTLKISDLGVAEALHPFAADDTCRTSQGSPAFQPPEIANGLDTFSGFKVDIWSAGVTLYNITTGLYPFEGDNIYKLFENIGKGSYAIPGDCGPPLSDLLKGMLEYEPAKRFSIRQIRQHSWFRKKHPPAEAPVPIPPSPDTKDRWRAMTVVPYLEDLHGADEDEDLFDIEDDIIYTQDFTVPGQVPEEEASHNGQRRGLPKAVCMNGTEAAQLSTKSRAEGRAPNPARKACSASSKIRRLSACKQQ [S334A], the STK11 functional score is reported as 0.943 ± 0.21. With MEVVDPQQLGMFTEGELMSVGMDTFIHRIDSTEVIYQPRRKRAKLIGKYLMGDLLGEGSYGKVKEVLDSETLCRRAVKILKKKKLRRIPNGEANVKKEIQLLRRLRHKNVIQLVDVLYNEEKQKMYMVMEYCVCGMQEMLDSVPEKRFPVCQAHGYFCQLIDGLEYLHSQGIVHKDIKPGNLLLTTGGTLKISDLGVAEALHPFAADDTCRTSQGSPAFQPPEIANGLDTFSGFKVDIWSAGVTLYNWTTGLYPFEGDNIYKLFENIGKGSYAIPGDCGPPLSDLLKGMLEYEPAKRFSIRQIRQHSWFRKKHPPAEAPVPIPPSPDTKDRWRSMTVVPYLEDLHGADEDEDLFDIEDDIIYTQDFTVPGQVPEEEASHNGQRRGLPKAVCMNGTEAAQLSTKSRAEGRAPNPARKACSASSKIRRLSACKQQ [I248W] the STK11 functional score was 0.853 ± 0.099. MEVVDPQQLGMFTEGELMSVGMDTFIHRIDSTEVIYQPRRKRAKLIGKYLMGDLLGEGSYGKVKEVLDSETLCRRAVKILKKKKLRRIPNGEANVKKEIQLLRRLRHKNVIQLVDVLYNEEKQKMYMVMEYCVCGMQEMLDSVPEKRFPVCQAHGYGCQLIDGLEYLHSQGIVHKDIKPGNLLLTTGGTLKISDLGVAEALHPFAADDTCRTSQGSPAFQPPEIANGLDTFSGFKVDIWSAGVTLYNITTGLYPFEGDNIYKLFENIGKGSYAIPGDCGPPLSDLLKGMLEYEPAKRFSIRQIRQHSWFRKKHPPAEAPVPIPPSPDTKDRWRSMTVVPYLEDLHGADEDEDLFDIEDDIIYTQDFTVPGQVPEEEASHNGQRRGLPKAVCMNGTEAAQLSTKSRAEGRAPNPARKACSASSKIRRLSACKQQ [F157G] showed an STK11 functional score of -0.101 ± 0.099. In the case of MEVVDPQQLGMFTEGELMSVGMDTFIHRIDSTEVIYQPRRKRAKLIGKYLMGDLLGEGSYGKVKEVLDSETLCRRAVKILKKKKLRRIPNGEANVKKEIQLLRRLRHKNVIQLVDVLYNEEKQKMYMVMEYCVEGMQEMLDSVPEKRFPVCQAHGYFCQLIDGLEYLHSQGIVHKDIKPGNLLLTTGGTLKISDLGVAEALHPFAADDTCRTSQGSPAFQPPEIANGLDTFSGFKVDIWSAGVTLYNITTGLYPFEGDNIYKLFENIGKGSYAIPGDCGPPLSDLLKGMLEYEPAKRFSIRQIRQHSWFRKKHPPAEAPVPIPPSPDTKDRWRSMTVVPYLEDLHGADEDEDLFDIEDDIIYTQDFTVPGQVPEEEASHNGQRRGLPKAVCMNGTEAAQLSTKSRAEGRAPNPARKACSASSKIRRLSACKQQ [C134E], the STK11 functional score is reported as 1.45 ± 0.2.
